This passage reports IC50 and Kd results from the Immune Epitope Database (IEDB).

A value given as a limit tells only on which side of the number the result lay.

Assay [1] addresses HLA-A*01:01. Description: IEDB peptide-MHC binding, purified MHC/competitive/radioactivity; ≥ and ≤ were set here for values at or beyond the usual limits of such assays. Particulars: source organism: Homo sapiens.
For another assay, the target named is HLA-B*14:02. Nature of the assay: IEDB peptide-MHC binding, purified MHC/competitive/fluorescence; ≥ and ≤ were set here for values at or beyond the usual limits of such assays. Particulars: source organism: Horsepox virus.
Assay [2] deals with HLA-A*01:01. Nature of the assay: IEDB peptide-MHC binding, purified MHC/direct/fluorescence; filed as Kd, often an IC50 or EC50 that approximates it; ≥ and ≤ were set here for values at or beyond the usual limits of such assays. Conditions: source organism: Camelpox virus CMS.
Another assay deals with HLA-A*02:01. The assay is described as above. Particulars: source organism: Camelpox virus CMS.
A further assay has as its target HLA-A*03:01. The assay is described as above. Conditions: source organism: Camelpox virus CMS.
Assay [3] addresses HLA-A*11:01. Described as above. Particulars: source organism: Camelpox virus CMS.
A further assay addresses HLA-A*26:01. The description is as above. Conditions: source organism: Variola virus.
The target in the next assay is HLA-A*31:01. Described as above. Particulars: source organism: Camelpox virus CMS.
A further assay has as its target HLA-A*69:01. The assay is described as above. Particulars: source organism: Camelpox virus CMS.
For the next assay, the target named is HLA-B*07:02. The assay is described as above. Conditions: source organism: Camelpox virus CMS.
For a further assay, the target named is HLA-B*08:01. The description is as above. Particulars: source organism: Variola virus.
The target in the next assay is HLA-B*08:02. The assay is described as above. Particulars: source organism: Variola virus.
The target of assay [4] is HLA-B*15:01. Described as above. Particulars: source organism: Camelpox virus CMS.
In a further assay the target is HLA-B*15:17. The description is as above. Conditions: source organism: Camelpox virus CMS.
For assay [5], the target named is HLA-B*18:01. The assay is described as above. Particulars: source organism: Camelpox virus CMS.
The target of a further assay is HLA-B*27:05. The description is as above. Conditions: source organism: Camelpox virus CMS.
In another assay the target is HLA-B*40:01. The assay is described as above. Particulars: source organism: Camelpox virus CMS.
The target of another assay is HLA-B*46:01. Described as above. Particulars: source organism: Camelpox virus CMS.
The next assay deals with HLA-B*48:01. The assay is described as above. Particulars: source organism: Camelpox virus CMS.
The next assay deals with HLA-B*51:01. Described as above. Particulars: source organism: Camelpox virus CMS.
The target in assay [6] is HLA-B*57:01. Described as above. Conditions: source organism: Camelpox virus CMS.
For the next assay, the target named is HLA-B*58:01. The description is as above. Conditions: source organism: Camelpox virus CMS.
A further assay has as its target HLA-C*05:01. Described as above. Particulars: source organism: Vaccinia virus WR.
A further assay deals with HLA-A*32:15. Description: IEDB peptide-MHC binding, purified MHC/competitive/fluorescence; filed as Kd, often an IC50 or EC50 that approximates it; ≥ and ≤ were set here for values at or beyond the usual limits of such assays. Particulars: source organism: Vaccinia virus WR.
A further assay addresses HLA-A*68:23. The assay is described as above. Particulars: source organism: Vaccinia virus WR.
Another assay deals with HLA-B*15:09. The assay is described as above. Conditions: source organism: Vaccinia virus WR.
The target of the next assay is HLA-B*15:42. Described as above. Particulars: source organism: Vaccinia virus WR.
The target in another assay is HLA-B*39:01. Described as above. Particulars: source organism: Vaccinia virus WR.
The target in the next assay is HLA-B*45:06. The description is as above. Particulars: source organism: Vaccinia virus WR.
Assay [7] concerns the target HLA-A*01:01. Described as above. Conditions: source organism: Human immunodeficiency virus 1.
For the next assay, the target named is HLA-A*02:03. Described as above. Conditions: source organism: Human immunodeficiency virus 1.
The target in another assay is HLA-A*02:06. Described as above. Particulars: source organism: Human immunodeficiency virus 1.
Assay [8] concerns the target HLA-A*11:01. The assay is described as above. Particulars: source organism: Human immunodeficiency virus 1.
The next assay concerns the target HLA-A*26:02. Described as above. Conditions: source organism: Human immunodeficiency virus 1.
The next assay concerns the target HLA-A*30:01. Described as above. Conditions: source organism: Human immunodeficiency virus 1.
For assay [9], the target named is HLA-B*15:01. The assay is described as above. Particulars: source organism: Human immunodeficiency virus 1.
The target of assay [10] is HLA-B*18:01. The assay is described as above. Conditions: source organism: Human immunodeficiency virus 1.
For the next assay, the target named is HLA-B*35:01. The assay is described as above. Particulars: source organism: Human immunodeficiency virus 1.
The target of assay [11] is HLA-B*57:01. Described as above. Particulars: source organism: Human immunodeficiency virus 1.

In general, IC50 refers to the concentration that gives 50% inhibition. On to IVDSLTEMY, for which, in the assay with HLA-A*01:01 [1], the IC50 was 7 nM.
The term Kd denotes the free concentration of one partner at which half of the binding sites on the other are occupied at equilibrium, for simple one-to-one binding. A low value points to higher affinity. For MPAYIRNTL, in the assay with HLA-B*14:02, the IC50 came to 453 nM. Further, the Kd with HLA-A*01:01 [2] was at least 20000 nM; in the assay with HLA-A*02:01, at least 20000 nM; with HLA-A*03:01 it was at least 20000 nM; with HLA-A*11:01 [3], at least 20000 nM; in the assay with HLA-A*26:01 it was 6950 nM; in the assay with HLA-A*31:01, at least 20000 nM. Also, the Kd in the assay with HLA-A*69:01 was at most 1 nM; in the assay with HLA-B*07:02 it was 6.6 nM; with HLA-B*08:01, 8 nM; with HLA-B*08:02, 1370 nM; with HLA-B*15:01 [4], at least 20000 nM; in the assay with HLA-B*15:17, at least 20000 nM. The Kd with HLA-B*18:01 [5] is 2820 nM; with HLA-B*27:05 it was at least 20000 nM; in the assay with HLA-B*40:01 it was at least 20000 nM; with HLA-B*46:01, at least 20000 nM; with HLA-B*48:01, 1520 nM; in the assay with HLA-B*51:01, 676 nM. For the same sequence, the Kd with HLA-B*57:01 [6] was at least 20000 nM; with HLA-B*58:01, at least 20000 nM; with HLA-C*05:01 it was at least 20000 nM; in the assay with HLA-A*32:15, 63.6 nM; in the assay with HLA-A*68:23, 0.9 nM; in the assay with HLA-B*15:09 it was at least 20000 nM. Further, the Kd is at least 5000 nM with HLA-B*15:42, 36.4 nM with HLA-B*39:01 and at least 5000 nM in the assay with HLA-B*45:06.
In the case of RSLFNTVAVLY, the Kd with HLA-A*01:01 [7] is at least 20000 nM; with HLA-A*02:03, 644 nM; with HLA-A*02:06, 952 nM; with HLA-A*11:01 [8], 1350 nM; with HLA-A*26:02, 3070 nM; in the assay with HLA-A*30:01, 2960 nM. The Kd was found to be 907 nM with HLA-B*15:01 [9], 360 nM with HLA-B*18:01 [10], 387 nM with HLA-B*35:01 and 676 nM in the assay with HLA-B*57:01 [11].
